For 15 molecules, binding result and Kd results are on record in paper PMC5934628.

What all share (experiment): EMSA
In series [1] the target is T1, VAL1-B3 wt (C-terminal His6) (Arabidopsis thaliana, UniProt Q8W4L5 288-397).
T1 sequence: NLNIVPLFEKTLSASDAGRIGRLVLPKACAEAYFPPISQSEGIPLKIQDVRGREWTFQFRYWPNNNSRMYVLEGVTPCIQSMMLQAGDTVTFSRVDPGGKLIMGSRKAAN

Series [2] deals with T1, VAL1-B3 wt (C-terminal His6). This is another data set of the same source.
A further series addresses T2, VAL1-B3 N352A (Arabidopsis thaliana, UniProt Q8W4L5 288-397, N352A).
T2 sequence: T1 sequence with N65A

In a further series the target is T3, VAL1-B3 Q345R (Arabidopsis thaliana, UniProt Q8W4L5 288-397, Q345R).
T3 sequence: T1 sequence with Q58R

The target in the next series is T4, VAL1-B3 R306A (Arabidopsis thaliana, UniProt Q8W4L5 288-397, R306A).
T4 sequence: T1 sequence with R19A

The next series addresses T5, VAL1-B3 I307A (Arabidopsis thaliana, UniProt Q8W4L5 288-397, I307A).
T5 sequence: T1 sequence with I20A

Series [3] deals with T1, VAL1-B3 wt (C-terminal His6). This is another data set of the same source.

Where a chain is given by its changes, count along the chain named. Where two headings read alike, the source gives them in different places.

B1: 12/12_5A (dsDNA)
DNA 1: CGGTGCAAGGCT
DNA 2: AGCCTTGCACCG
For the molecule B1, in series [1], the binding result is “no binding”.

B2: 12/12_6A (dsDNA)
DNA 1: CGGTGCATAGCT
DNA 2: AGCTATGCACCG
For B2, in series [1], the binding result is recorded as “no binding”.

B3: 12/12_3A (dsDNA)
DNA 1: CGGTGAATGGCT
DNA 2: AGCCATTCACCG
As for B3, the binding result in series [1] was “no binding”.

B4: 12/12SP_2 (dsDNA)
DNA 1: CGCTGCATGCCT
DNA 2: AGGCATGCAGCG
B4: the binding result in series [2] is recorded as “binds”.

B5: 12/12_1A (dsDNA)
DNA 1: CGGAGCATGGCT
DNA 2: AGCCATGCTCCG
Regarding B5, the binding result in series [1] was “no binding”.

B6: 12/12SP (dsDNA)
DNA 1: CGGTGCATGGCT
DNA 2: AGCCATGCACCG
As for B6, the binding result in the series with VAL1-B3 N352A is recorded as “binds”; with VAL1-B3 Q345R, “binds”; with VAL1-B3 R306A, “no binding”; in the series with VAL1-B3 I307A, “binds”. In series [3], this molecule yielded a Kd of about 3000 nM.

B7: 12/12_2T (dsDNA)
DNA 1: CGGTTCATGGCT
DNA 2: AGCCATGAACCG
B7: the binding result in series [1] is reported as “no binding”.

B8: 12/12_1C (dsDNA)
DNA 1: CGGCGCATGGCT
DNA 2: AGCCATGCGCCG
With B8, the binding result in series [1] is listed as “no binding”.

B9: 12/12_6C (dsDNA)
DNA 1: CGGTGCATCGCT
DNA 2: AGCGATGCACCG
Regarding B9, the binding result in series [1] is “no binding”.

B10: 12/12_2C (dsDNA)
DNA 1: CGGTCCATGGCT
DNA 2: AGCCATGGACCG
As to B10, the binding result in series [1] was “no binding”.

B11: 12/12_5C (dsDNA)
DNA 1: CGGTGCACGGCT
DNA 2: AGCCGTGCACCG
As for B11, the binding result in series [1] is “no binding”.

B12: 12/12_6T (dsDNA)
DNA 1: CGGTGCATTGCT
DNA 2: AGCAATGCACCG
Take B12: the binding result in series [1] is recorded as “no binding”.

B13: 12/12_2A (dsDNA)
DNA 1: CGGTACATGGCT
DNA 2: AGCCATGTACCG
As for B13, in series [1], the binding result is “no binding”.

B14: 12/12_3T (dsDNA)
DNA 1: CGGTGTATGGCT
DNA 2: AGCCATACACCG
Turning to B14, the binding result in series [1] is “no binding”.

B15: 12/12_4T (dsDNA)
DNA 1: CGGTGCTTGGCT
DNA 2: AGCCAAGCACCG
B15: the binding result in series [1] is “no binding”.
